According to the supplement of paper PMC10567573:

B1: ZNF263 (parent)
chain: VPGTQVGQGGKLWDPSVQSCKEGL

Variants of: B1
Assay: protein stability index of a GFP-peptide fusion (GPS, HEK-293T) (PSI 1-6); higher = more stable
Details: c terminus: a fixed tail appended
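Note: lentivirally expressed fusions sorted by FACS into six bins by GFP to DsRed ratio, PSI derived from sequencing read proportions per bin multiplied by bin number.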

Protein stability index: each site, then its substitutions
G9: N 3.47 | P 3.25 | Q 4.22 | R 3.67 | S 4.23 | T 4.25 | V 3.67 | W 3.33 | Y 3.59
G10: A 4.33 | C 3.24 | D 4.54 | E 4.01 | F 2.93 | H 4.02 | I 3.53 | K 4.5 | L 3.62 | M 4.28 | N 4.19 | P 4.47 | Q 4.38 | R 4.96 | S 4.48 | T 4.31 | V 3.71 | W 2.45 | Y 3.55
K11: A 4 | C 4.57 | D 4.63 | E 4.22 | F 3.9 | G 4.44 | H 4.03 | I 4.26 | L 4.13 | M 4.56 | N 4.54 | P 3.65 | Q 4.54 | R 4.46 | S 4.35 | T 4.31 | V 3.61 | W 3.72 | Y 4.12
L12: A 3.4 | C 3.94 | D 4.89 | E 3.97 | F 4.26 | G 3.97 | H 4.45 | I 3.65 | K 4.37 | M 4.07 | N 4.42 | P 5.07 | Q 4.72 | R 4.36 | S 4.3 | T 4.34 | V 4.42 | W 4.01 | Y 3.79
W13: A 4.8 | C 4.76 | D 4.4 | E 5.29 | F 4.59 | G 5.5 | H 4.66 | I 4.66 | K 4.61 | L 4.8 | M 4.41 | N 5.12 | P 4.72 | Q 4.79 | R 4.71 | S 4.54 | T 4.79 | V 4.88 | Y 4.57
D14: A 4.14 | C 3.35 | E 3.78 | F 3.07 | G 4.1 | H 4.08 | I 3.66 | K 3.51 | M 3.36 | N 3.72 | P 3.44 | Q 4.09 | R 3.05 | S 3.99 | T 3.79 | V 3.87 | W 3.19 | Y 3.11
P15: A 4.22 | C 3.75 | D 4.29 | E 4.94 | F 2.86 | G 4.35 | H 4.01 | I 3.3 | K 4.23 | L 4.8 | M 3.54 | N 4.13 | Q 4.25 | R 4.16 | S 4.03 | T 4.25 | V 3.63 | W 3.17 | Y 3.16
S16: A 4.88 | C 4.11 | D 4.93 | E 4.73 | F 3.12 | G 4.21 | H 4.27 | I 3.15 | K 4.11 | L 3.53 | M 3.92 | N 3.89 | P 4.45 | Q 4.38 | R 3.12 | T 4.58 | V 4.02 | W 3.17 | Y 3.68
V17: A 4.38 | C 4.15 | D 4.92 | E 5.16 | F 3.38 | G 3.99 | H 4.1 | I 3.89 | K 4.33 | L 4.08 | M 4.06 | N 4.07 | P 4.24 | Q 3.8 | R 4.23 | S 4.92 | T 3.74 | Y 4.1
Q18: A 3.46 | C 3.63 | D 4.54 | E 4.7 | F 3.2 | G 4.92 | H 3.89 | I 4.01
